T1: PUF4 RNA-binding domain (Saccharomyces cerevisiae, UniProt P25339 537-888)
T1 sequence: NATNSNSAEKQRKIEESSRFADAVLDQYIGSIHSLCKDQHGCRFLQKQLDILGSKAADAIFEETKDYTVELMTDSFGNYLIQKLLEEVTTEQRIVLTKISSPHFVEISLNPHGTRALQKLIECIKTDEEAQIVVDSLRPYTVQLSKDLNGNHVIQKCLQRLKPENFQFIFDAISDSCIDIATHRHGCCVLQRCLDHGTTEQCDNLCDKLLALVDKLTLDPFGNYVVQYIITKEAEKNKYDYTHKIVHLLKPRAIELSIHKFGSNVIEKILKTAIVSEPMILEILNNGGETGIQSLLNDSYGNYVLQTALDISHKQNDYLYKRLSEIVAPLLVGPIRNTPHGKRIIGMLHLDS

B1: Ic_S1_P4E.1_K4.1_C4.1_H4.1_A4.1_[A6G]_[T7A]_F4.1_[A9G]_T4.1 (ssRNA)
RNA: UCUCUUUGUAUGAUGUCUCUU
B2: Ib_S1_P3E.1_K3.1_C3.1_H3.1_A3.1_[T5A]_F3.1_[T7C]_T3.1 (ssRNA)
RNA: UCUCUUUGUAAACAUCUCUU
B3: Ic_S1_P4E.1_K4.1_C4.1_H4.1_A4.1_[T5A]_F4.1_[T8C]_[A9C]_T4.1 (ssRNA)
RNA: UCUCUUUGUAAAUCCUCUCUU
B4: Ic_S1_P4E.1_K4.1_C4.1_H4.1_A4.1_[A6G]_[T7C]_F4.1_[T8A]_[A9G]_T4.1 (ssRNA)
RNA: UCUCUUUGUAUGCAGUCUCUU
B5: Ic_S1_P4E.1_K4.1_C4.1_H4.1_A4.1_[A6G]_[T7C]_F4.1_[T8G]_[A9C]_T4.1 (ssRNA)
RNA: UCUCUUUGUAUGCGCUCUCUU
B6: Ic_S1_P4E.1_K4.1_C4.1_H4.1_A4.1_[A6G]_[T7C]_F4.1_[T8G]_[A9T]_T4.1 (ssRNA)
RNA: UCUCUUUGUAUGCGUUCUCUU
B7: Ic_S1_P4E.1_K4.1_C4.1_H4.1_A4.1_[T5A]_[T7A]_F4.1_[T8A]_[A9T]_T4.1 (ssRNA)
RNA: UCUCUUUGUAAAAAUUCUCUU
B8: Ic_S1_P4E.1_K4.1_C4.1_H4.1_A4.1_[A6G]_F4.1_[T8G]_[A9G]_T4.1 (ssRNA)
RNA: UCUCUUUGUAUGUGGUCUCUU
B9: Ic_S1_P3E.1_K3.1_C3.1_H3.1_A3.1_[T5A]_F3.1_[T7A]_T3.1 (ssRNA)
RNA: UCUCUUUGUAAAAAUCUCUU
B10: Ic_S1_P4E.1_K4.1_C4.1_H4.1_A4.1_[T5A]_F4.1_[T8A]_[A9T]_T4.1 (ssRNA)
RNA: UCUCUUUGUAAAUAUUCUCUU
B11: Ic_S1_P4E.1_K4.1_C4.1_H4.1_A4.1_[A6G]_[T7A]_F4.1_[A9C]_T4.1 (ssRNA)
RNA: UCUCUUUGUAUGAUCUCUCUU
B12: Ic_S1_P4E.1_K4.1_C4.1_H4.1_A4.1_[T5A]_[T7G]_F4.1_[A9C]_T4.1 (ssRNA)
RNA: UCUCUUUGUAAAGUCUCUCUU
B13: Ic_S1_P4E.1_K4.1_C4.1_H4.1_A4.1_[T5A]_[T7A]_F4.1_[A9T]_T4.1 (ssRNA)
RNA: UCUCUUUGUAAAAUUUCUCUU
B14: Ic_S1_P4E.1_K4.1_C4.1_H4.1_A4.1_[T5A]_[T7C]_F4.1_[T8G]_[A9C]_T4.1 (ssRNA)
RNA: UCUCUUUGUAAACGCUCUCUU
B15: Ic_S1_P4E.1_K4.1_C4.1_H4.1_A4.1_[T5A]_[T7A]_F4.1_[T8C]_[A9C]_T4.1 (ssRNA)
RNA: UCUCUUUGUAAAACCUCUCUU
B16: Ic_S1_P4E.1_K4.1_C4.1_H4.1_A4.1_[A6G]_F4.1_[T8G]_[A9T]_T4.1 (ssRNA)
RNA: UCUCUUUGUAUGUGUUCUCUU
B17: Ic_S1_P4E.1_K4.1_C4.1_H4.1_A4.1_[T5A]_[T7C]_F4.1_[A9G]_T4.1 (ssRNA)
RNA: UCUCUUUGUAAACUGUCUCUU
B18: Ic_S1_P4E.1_K4.1_C4.1_H4.1_A4.1_[A6G]_F4.1_[T8A]_[A9G]_T4.1 (ssRNA)
RNA: UCUCUUUGUAUGUAGUCUCUU
B19: Ic_S1_P4E.1_K4.1_C4.1_H4.1_A4.1_[A6G]_[T7C]_F4.1_[T8A]_[A9T]_T4.1 (ssRNA)
RNA: UCUCUUUGUAUGCAUUCUCUU
B20: Ic_S1_P4E.1_K4.1_C4.1_H4.1_A4.1_[T5A]_[T7C]_F4.1_[T8C]_[A9C]_T4.1 (ssRNA)
RNA: UCUCUUUGUAAACCCUCUCUU
B21: Ic_S1_P4E.1_K4.1_C4.1_H4.1_A4.1_[A6G]_[T7G]_F4.1_[T8C]_[A9C]_T4.1 (ssRNA)
RNA: UCUCUUUGUAUGGCCUCUCUU
B22: Ic_S1_P4E.1_K4.1_C4.1_H4.1_A4.1_[T5A]_[T7A]_F4.1_[T8C]_T4.1 (ssRNA)
RNA: UCUCUUUGUAAAACAUCUCUU
B23: Ic_S1_P3E.1_K3.1_C3.1_H3.1_A3.1_[T5C]_F3.1_[T7A]_T3.1 (ssRNA)
RNA: UCUCUUUGUACAAAUCUCUU
B24: Ic_S1_P4E.1_K4.1_C4.1_H4.1_A4.1_[A6G]_[T7C]_F4.1_[A9G]_T4.1 (ssRNA)
RNA: UCUCUUUGUAUGCUGUCUCUU
B25: Ic_S1_P4E.1_K4.1_C4.1_H4.1_A4.1_[A6G]_[T7C]_F4.1_[A9C]_T4.1 (ssRNA)
RNA: UCUCUUUGUAUGCUCUCUCUU
B26: Ic_S1_P4E.1_K4.1_C4.1_H4.1_A4.1_[T5A]_[T7A]_F4.1_[A9G]_T4.1 (ssRNA)
RNA: UCUCUUUGUAAAAUGUCUCUU
B27: Ic_S1_P4E.1_K4.1_C4.1_H4.1_A4.1_[T5A]_[T7C]_F4.1_[T8A]_[A9G]_T4.1 (ssRNA)
RNA: UCUCUUUGUAAACAGUCUCUU
B28: Ic_S1_P4E.1_K4.1_C4.1_H4.1_A4.1_[A6G]_[T7G]_F4.1_[T8C]_[A9T]_T4.1 (ssRNA)
RNA: UCUCUUUGUAUGGCUUCUCUU
B29: Ic_S1_P4E.1_K4.1_C4.1_H4.1_A4.1_[A6G]_F4.1_[T8C]_[A9C]_T4.1 (ssRNA)
RNA: UCUCUUUGUAUGUCCUCUCUU
B30: Ic_S1_P4E.1_K4.1_C4.1_H4.1_A4.1_[T5A]_[T7A]_F4.1_[T8C]_[A9T]_T4.1 (ssRNA)
RNA: UCUCUUUGUAAAACUUCUCUU
B31: Ic_S1_P4E.1_K4.1_C4.1_H4.1_A4.1_[A6G]_[T7C]_F4.1_[T8C]_T4.1 (ssRNA)
RNA: UCUCUUUGUAUGCCAUCUCUU
B32: Ic_S1_P4E.1_K4.1_C4.1_H4.1_A4.1_[T5A]_[T7A]_F4.1_[A9C]_T4.1 (ssRNA)
RNA: UCUCUUUGUAAAAUCUCUCUU
B33: Ic_S1_P4E.1_K4.1_C4.1_H4.1_A4.1_[A6G]_[T7C]_F4.1_[T8A]_T4.1 (ssRNA)
RNA: UCUCUUUGUAUGCAAUCUCUU
B34: Ic_S1_P4E.1_K4.1_C4.1_H4.1_A4.1_[T5A]_[T7C]_F4.1_[T8A]_[A9C]_T4.1 (ssRNA)
RNA: UCUCUUUGUAAACACUCUCUU
B35: Ic_S1_P4E.1_K4.1_C4.1_H4.1_A4.1_[T5A]_F4.1_[T8A]_[A9C]_T4.1 (ssRNA)
RNA: UCUCUUUGUAAAUACUCUCUU
B36: Ic_S1_P4E.1_K4.1_C4.1_H4.1_A4.1_[T5A]_[T7C]_F4.1_[A9C]_T4.1 (ssRNA)
RNA: UCUCUUUGUAAACUCUCUCUU
B37: Ic_S1_P4E.1_K4.1_C4.1_H4.1_A4.1_[A6G]_[T7G]_F4.1_[A9T]_T4.1 (ssRNA)
RNA: UCUCUUUGUAUGGUUUCUCUU
B38: Ic_S1_P4E.1_K4.1_C4.1_H4.1_A4.1_[T5A]_F4.1_[T8A]_[A9G]_T4.1 (ssRNA)
RNA: UCUCUUUGUAAAUAGUCUCUU
B39: Ic_S1_P3E.1_K3.1_C3.1_H3.1_A3.1_[T5C]_F3.1_[T7C]_T3.1 (ssRNA)
RNA: UCUCUUUGUACACAUCUCUU
B40: Ic_S1_P4E.1_K4.1_C4.1_H4.1_A4.1_[A6G]_[T7G]_F4.1_[T8C]_[A9G]_T4.1 (ssRNA)
RNA: UCUCUUUGUAUGGCGUCUCUU
B41: Ic_S1_P4E.1_K4.1_C4.1_H4.1_A4.1_[A6G]_F4.1_[T8A]_[A9C]_T4.1 (ssRNA)
RNA: UCUCUUUGUAUGUACUCUCUU
B42: Ic_S1_P4E.1_K4.1_C4.1_H4.1_A4.1_[T5A]_[T7A]_F4.1_[T8A]_[A9C]_T4.1 (ssRNA)
RNA: UCUCUUUGUAAAAACUCUCUU
B43: Ic_S1_P4E.1_K4.1_C4.1_H4.1_A4.1_[A6G]_[T7C]_F4.1_[A9T]_T4.1 (ssRNA)
RNA: UCUCUUUGUAUGCUUUCUCUU
B44: Ic_S1_P4E.1_K4.1_C4.1_H4.1_A4.1_[A6G]_[T7A]_F4.1_[T8C]_[A9T]_T4.1 (ssRNA)
RNA: UCUCUUUGUAUGACUUCUCUU
B45: Ic_S1_P4E.1_K4.1_C4.1_H4.1_A4.1_[A6G]_[T7G]_F4.1_[A9C]_T4.1 (ssRNA)
RNA: UCUCUUUGUAUGGUCUCUCUU
B46: Ic_S1_P4E.1_K4.1_C4.1_H4.1_A4.1_[T5A]_[T7C]_F4.1_[T8A]_[A9T]_T4.1 (ssRNA)
RNA: UCUCUUUGUAAACAUUCUCUU
B47: Ic_S1_P4E.1_K4.1_C4.1_H4.1_A4.1_[T5A]_F4.1_[T8G]_[A9C]_T4.1 (ssRNA)
RNA: UCUCUUUGUAAAUGCUCUCUU
B48: Ic_S1_P4E.1_K4.1_C4.1_H4.1_A4.1_[T5A]_[T7A]_F4.1_[T8G]_[A9C]_T4.1 (ssRNA)
RNA: UCUCUUUGUAAAAGCUCUCUU
B49: Ic_S1_P4E.1_K4.1_C4.1_H4.1_A4.1_[T5A]_[T7C]_F4.1_[A9T]_T4.1 (ssRNA)
RNA: UCUCUUUGUAAACUUUCUCUU
B50: Ic_S1_P4E.1_K4.1_C4.1_H4.1_A4.1_[T5A]_[T7C]_F4.1_[T8A]_T4.1 (ssRNA)
RNA: UCUCUUUGUAAACAAUCUCUU
B51: Ic_S1_P4E.1_K4.1_C4.1_H4.1_A4.1_[T5A]_[T7C]_F4.1_[T8C]_[A9G]_T4.1 (ssRNA)
RNA: UCUCUUUGUAAACCGUCUCUU

Target: T1, PUF4 RNA-binding domain
Test: Mg; RNA-MaP; 20 mM Na-HEPES pH 7.4, 30 mM KOAc, 0.75 mM MgCl2, 0.1% Tween-20, 5% glycerol, 0.1 mg/mL BSA, 2 mM DTT; 25 C; 0.0125-409.6 nM protein
Details: tags: N-His6-TEV cleaved; C-SNAP kept, Cy3B-labelled; label: tethered on chip by stalled RNA polymerase

| Binder | Kd [nM] |
| --- | --- |
| B1 | 56.7 |
| B2 | 424 |
| B3 | 368 |
| B4 | > 2300 |
| B5 | > 2300 |
| B6 | 1210 |
| B7 | 373 |
| B8 | 1000 |
| B9 | 367 |
| B10 | 26.2 |
| B11 | 148 |
| B12 | 406 |
| B13 | 33.5 |
| B14 | 833 |
| B15 | 523 |
| B16 | 92.5 |
| B17 | 17.2 |
| B18 | 106 |
| B19 | 565 |
| B20 | 1020 |
| B21 | > 2300 |
| B22 | 41.1 |
| B23 | 100 |
| B24 | 685 |
| B25 | 677 |
| B26 | 27.1 |

| Binder | Kd [nM] |
| --- | --- |
| B27 | 508 |
| B28 | 1630 |
| B29 | 564 |
| B30 | 106 |
| B31 | 472 |
| B32 | 54.4 |
| B33 | 516 |
| B34 | 565 |
| B35 | 36.7 |
| B36 | 33.8 |
| B37 | 542 |
| B38 | 11.5 |
| B39 | 46.1 |
| B40 | > 2300 |
| B41 | 41.5 |
| B42 | 526 |
| B43 | 96.1 |
| B44 | 804 |
| B45 | 1260 |
| B46 | 165 |
| B47 | 377 |
| B48 | 2280 |
| B49 | 24.7 |
| B50 | 57.4 |
| B51 | 951 |
